Biological target: DDX3X 132-607 (human) (UniProt O00571)
Assay: MST
Conditions: 20 nM labelled RNA, DDX3X 2-fold dilutions from 19 uM, 10 min at room temperature, measured at 25 C, assay buffer not stated (protein SEC buffer 50 mM …)

Chain of DDX3X 132-607 (human) (O00571 132-607): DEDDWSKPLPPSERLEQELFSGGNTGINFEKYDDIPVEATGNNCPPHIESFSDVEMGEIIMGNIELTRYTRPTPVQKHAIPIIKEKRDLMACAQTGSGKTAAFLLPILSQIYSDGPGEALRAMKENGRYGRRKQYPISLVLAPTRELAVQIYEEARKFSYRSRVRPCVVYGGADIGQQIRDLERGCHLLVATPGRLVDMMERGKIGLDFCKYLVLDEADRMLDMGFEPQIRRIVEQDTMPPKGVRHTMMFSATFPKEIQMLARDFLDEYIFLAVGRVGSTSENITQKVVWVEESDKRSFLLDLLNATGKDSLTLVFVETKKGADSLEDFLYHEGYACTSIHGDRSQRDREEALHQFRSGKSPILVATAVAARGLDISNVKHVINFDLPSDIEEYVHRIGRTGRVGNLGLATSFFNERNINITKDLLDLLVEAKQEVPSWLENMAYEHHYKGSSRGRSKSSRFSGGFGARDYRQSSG

| Sequence | Kd [µM] |
| --- | --- |
| AGUUGUUACUGUUGCUGACUCAGACUGCGACAGUUCGAGUUUGAAGCGAAAGCUAGCAACAGUAUCAACAGGUUUUAUUUGGAUUUGGAAACGAGAGUUUCUGGUCAUGAAAAACCCAAAAAAGAAAUCCGGAGGAUUCCGGAUUGUCAAUAUGCUAAAACG [ZIKV 5' TR 1-163] | 7.05 |
| GGAGAAGUUUUAUCGUGUGAACUUCUUGGCUUAGUAUCGUUGAGAAGAAUCGAGAGAUUAGUGCAGUUUAAACAGUUUUUUAGAACGGAAGAACAACCAUGACUAAAAAACCAGGAGGGCCCGGAAAAAACCGGGCCAUCAAUAUGCUGAAACGCGGAU [JEV 5' TR] | 1.66 |

— publication PMC7795613
